Source: publication PMC4182348 (PLoS ONE, 2014)

Columns and labels:
Conditions in all cases: one partner purified
[1] = biological target: tetanus toxoid (Clostridium tetani, strain  …, UniProt P04958); assay: SPR
Target sequence in this assay (P04958 whole entry): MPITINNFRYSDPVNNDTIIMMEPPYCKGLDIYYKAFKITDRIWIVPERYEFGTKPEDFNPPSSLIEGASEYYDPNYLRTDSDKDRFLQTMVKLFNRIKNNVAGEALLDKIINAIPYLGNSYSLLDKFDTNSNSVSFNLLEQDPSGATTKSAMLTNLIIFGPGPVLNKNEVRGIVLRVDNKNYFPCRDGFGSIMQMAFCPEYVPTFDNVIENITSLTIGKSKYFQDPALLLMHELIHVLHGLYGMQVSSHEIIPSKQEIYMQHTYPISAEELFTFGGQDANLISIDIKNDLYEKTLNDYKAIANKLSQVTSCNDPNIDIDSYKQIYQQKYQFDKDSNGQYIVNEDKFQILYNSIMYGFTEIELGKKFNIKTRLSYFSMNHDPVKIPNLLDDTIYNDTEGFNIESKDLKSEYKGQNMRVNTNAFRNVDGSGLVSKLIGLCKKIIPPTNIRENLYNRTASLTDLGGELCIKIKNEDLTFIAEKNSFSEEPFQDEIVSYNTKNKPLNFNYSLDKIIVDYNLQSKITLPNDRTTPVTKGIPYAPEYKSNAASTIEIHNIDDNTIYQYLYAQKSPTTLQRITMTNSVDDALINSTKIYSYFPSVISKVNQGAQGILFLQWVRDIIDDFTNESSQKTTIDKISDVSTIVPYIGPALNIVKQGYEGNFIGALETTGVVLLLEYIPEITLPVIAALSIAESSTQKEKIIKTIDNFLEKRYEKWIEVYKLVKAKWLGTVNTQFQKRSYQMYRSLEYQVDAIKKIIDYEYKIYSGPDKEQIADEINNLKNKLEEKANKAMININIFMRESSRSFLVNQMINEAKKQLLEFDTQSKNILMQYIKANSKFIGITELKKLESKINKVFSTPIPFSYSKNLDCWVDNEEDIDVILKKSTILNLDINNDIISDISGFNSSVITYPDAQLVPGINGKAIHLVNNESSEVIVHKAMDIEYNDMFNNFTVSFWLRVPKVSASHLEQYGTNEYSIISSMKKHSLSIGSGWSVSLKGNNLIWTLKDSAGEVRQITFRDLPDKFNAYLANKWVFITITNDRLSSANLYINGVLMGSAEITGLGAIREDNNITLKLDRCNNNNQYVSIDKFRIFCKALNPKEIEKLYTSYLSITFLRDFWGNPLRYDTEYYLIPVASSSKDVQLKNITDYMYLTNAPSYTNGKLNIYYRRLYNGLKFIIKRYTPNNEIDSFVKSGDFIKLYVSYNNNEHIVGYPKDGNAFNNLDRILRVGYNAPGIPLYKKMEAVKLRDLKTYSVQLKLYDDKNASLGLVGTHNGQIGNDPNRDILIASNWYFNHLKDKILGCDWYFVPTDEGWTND

[2] = biological target: T1, tetanus toxoid (Clostridium tetani, strain  …, UniProt P04958); assay: ELISA
T1 sequence (P04958 1-457, chain 1 of 2): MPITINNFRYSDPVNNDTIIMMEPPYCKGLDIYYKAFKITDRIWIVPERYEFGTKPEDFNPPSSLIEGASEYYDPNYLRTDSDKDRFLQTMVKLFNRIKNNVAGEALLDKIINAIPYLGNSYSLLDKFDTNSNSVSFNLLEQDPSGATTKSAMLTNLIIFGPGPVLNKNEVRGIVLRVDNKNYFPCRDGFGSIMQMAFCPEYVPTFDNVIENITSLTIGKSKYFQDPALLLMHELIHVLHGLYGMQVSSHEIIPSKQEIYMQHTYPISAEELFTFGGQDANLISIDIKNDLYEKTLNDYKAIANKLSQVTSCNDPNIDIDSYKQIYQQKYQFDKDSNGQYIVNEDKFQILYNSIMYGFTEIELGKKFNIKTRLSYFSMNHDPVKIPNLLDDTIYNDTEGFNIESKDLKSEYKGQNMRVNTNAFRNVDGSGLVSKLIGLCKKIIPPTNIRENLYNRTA
T1 sequence (P04958 458-1315, chain 2 of 2): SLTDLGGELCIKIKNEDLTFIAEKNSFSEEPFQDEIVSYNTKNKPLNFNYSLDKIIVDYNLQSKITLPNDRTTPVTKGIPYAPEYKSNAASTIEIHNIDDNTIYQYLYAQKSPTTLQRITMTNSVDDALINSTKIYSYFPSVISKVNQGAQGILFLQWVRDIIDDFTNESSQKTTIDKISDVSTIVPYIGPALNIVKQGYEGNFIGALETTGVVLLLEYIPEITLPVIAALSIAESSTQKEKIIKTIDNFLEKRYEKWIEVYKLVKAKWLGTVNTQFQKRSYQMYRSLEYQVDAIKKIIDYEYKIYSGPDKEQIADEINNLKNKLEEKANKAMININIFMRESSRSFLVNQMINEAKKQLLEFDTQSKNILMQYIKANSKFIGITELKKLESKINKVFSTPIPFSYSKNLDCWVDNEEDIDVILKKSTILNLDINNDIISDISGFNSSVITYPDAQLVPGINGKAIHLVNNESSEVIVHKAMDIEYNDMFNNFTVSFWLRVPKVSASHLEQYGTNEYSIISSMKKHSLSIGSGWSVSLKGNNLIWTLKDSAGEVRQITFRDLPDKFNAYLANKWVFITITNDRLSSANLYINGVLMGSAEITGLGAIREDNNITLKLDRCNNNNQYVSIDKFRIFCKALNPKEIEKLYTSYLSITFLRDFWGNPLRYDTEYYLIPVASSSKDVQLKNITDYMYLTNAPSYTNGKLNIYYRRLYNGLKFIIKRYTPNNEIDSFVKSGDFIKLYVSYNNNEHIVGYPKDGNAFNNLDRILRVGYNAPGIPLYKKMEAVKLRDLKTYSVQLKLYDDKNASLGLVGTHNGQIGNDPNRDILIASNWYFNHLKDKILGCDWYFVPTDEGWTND

[3] = biological target: T1, tetanus toxoid; assay: SPR; remark: listed apart in the source

B1: TT-specific Fab S10 from the phage display library (Fab, V domains shown)
VH: LVAPSQSLSITCTVSGFSLTDYGVNWVRQPPGKGLEWLGMIWGDGSTDYNSALKSRLSISKDNSKSQVFLKMNSLQTDDTARYFCVRTFHYGNYFDYWGQGTTLTVSS
VL: TMAASPGEKITITCSASSSISSNYLHWYQQKPGFSPKLLIYRTSNLASGVPARFSGSGSGTSYSLTIGTMEAEDVATYYCQQGSSIPLTFGAGTKLELK
[1]
  Kd: 12 nM
  koff: 0.00032 s⁻¹
  kon: 26000 M⁻¹ s⁻¹

B2: TT-specific Fab D5O 94 from the phage display library (Fab, V domains shown)
VH: LVKPGASVKIPCKASGYTFTDYNIDWVKQSHGKSLEWIGDINPNNGGTIYNQKFKDKATLTVDKSSSTAYMELRSLTSEDTAVYYCARDFYYGRYFDYWGQGTTLTVSS
VL: TMAASPGEKITITCSATSSISSNYLHWYQQKPGFSPKLLIYRTSNLASGVPARFSGSGSGTSYSLTIGTMEAEDVATYYCQQGSNIPTFGSGTKLELK
[1]
  Kd: 4.8 nM
  koff: 0.00037 s⁻¹
  kon: 78000 M⁻¹ s⁻¹

B3: phage display isolate S917 (Fab, V domains shown)
VH: LVKPGGSLKLSCAVSGFNFSNYAMSWVRQTPEKRLEWVATISSGGSYIYYPDSVKGRFTISRDNAKNTLYLQMSSLRSEDTAMYYCARQDRYGFALDYWGQGTSVTVSS
VL: SLSASLGDRVTISCRASQDINNYLNWYQQKPDGTIRLLIYYTSRLHSGVPSRFSGSGSGTDYSLTITNLEQEDFATYFCQQGNTLPWAFGGGTKLEIK
[2]
  binding result: binds

B4: phage display isolate S546 (Fab, V domains shown)
VH: LVAPSQSLSITCTVSGFSLTSYGVHWVRQPPGKGLEWLGVIWPGGSTNYNSALMSRLSISKDNSKSQVFLKMNSLQTDDTAMYYCARDFQYGNYFDYWGQGTTLTVSS
VL: TMAASPGEKITITCSASSSISSNYLHWYQQKPGFSPKLLIYRTSNLASGVPTRFSGSGSGTSYSLTIGTMEAEDVATYYCQQGSSISTFGAGTKLELK
[2]
  binding result: binds

B5: anti-TT mAb of hybridoma 24 (antibody, V domains shown)
VH: VQLQQTGPGLVQPSQSLSITCTVSAFSLTNYGIHWVRQSPGKGLEWLGVIWTGGSTDYNAPFISRLSISKDNSKSQVFFKMNSLQANDTAIYYCVRDGYRVMDYWGQGTSVTVSS
VL: LSASVGETVTITCRASGNIHNYLAWYQQKQGKSPQLLVYNAKTLTDGVPSRFSGSGSGTQHSLKINSLQPEDFGSYYCQHFWTIPWTFGGGTKLEIK
[3]
  Kd: 1.9 nM
  koff: 0.00016 s⁻¹
  kon: 86000 M⁻¹ s⁻¹

B6: anti-TT mAb of hybridoma 14 (antibody, V domains shown)
VH: VQLQESGPGLVAPSQSLSITCTVSGFSLTSYGVHWVRQPPGKGLEWLGVIWPGGSTNYNSALMSRLSISQDNSKSQVFLKMNSLQIDDTAMYHCARDFQYGNYFDYWGQGTSLTVSS
VL: MPASPGEKITITCSASSSISSNYLHWYQQKPGFSPKLLIYRTSNLASGVPARFSGSGSGTSYSLTVGTMEAEDVATYYCQQGTSIPTFGAGTKLELK
[3]
  Kd: 3.1 nM
  koff: 0.00029 s⁻¹
  kon: 94000 M⁻¹ s⁻¹

B7: anti-TT mAb of hybridoma P4T29115 (antibody, V domains shown)
VH: EVKLVESGGGLVKPGGSLKLSCAASGITFSNYAMSWVRQTPEKRLEWVATISSGGSYIYYPDSVKGRFTISRDNAKNTLYLQMSSLRSEDTAVYFCARLGYDGVALDYWGQGTSVTVSS
VL: ASLGDRVSISCRASQDIRNYLNWYQQRPDGTVKLLIYYTSRLHSGVPSRFSGSGSGTDYSLTISNLEQEDIATYFCQQGNTFPWTFGGGTKLEIK
[2]
  binding result: binds
